The target in assay [1] is T1, Human C3d (human, UniProt P01024 996-1303, limits assumed).
T1 construct: domain: C3d; also called complement component 3 proteolytic fragment C3d
The experiment in a line: ITC, 20 °C, 1/3x PBS, two site binding model (weak site). A general note: Isothermal titration calorimetry measures the heat released or taken up as one component is titrated into another.
Protocol: (§1) ITC experiments were carried out on a Microcal VP-ITC (GE Healthcare, Piscataway, N.J.) housed in the Biophysics Core facility on the UCDSOM campus. […] Data was analyzed using the software provided by the manufacturer (Origin, version 7.0 MicroCal) using either single site or two site binding models (55).

The target in assay [2] is T1, Human C3d. The experiment in a line: ITC, 20 °C, 1/3x PBS, two site binding model (tight site).
Protocol: as §1
Assay [3] concerns the target T2, EBV gp350, truncated construct comprising residues 1-470 of the wild-type protein, C-terminal polyhistidine … (Epstein-Barr virus, UniProt P03200 1-470).
T2 construct: range 1-470; Produced in Sf9 insect cells by baculovirus; The methods say truncated 1-470, yet the results and discussion call the titrated ligand 'full-length'; also called Epstein-Barr virus glycoprotein gp350/220; not shown: C-terminal polyhistidine tag
T2 sequence: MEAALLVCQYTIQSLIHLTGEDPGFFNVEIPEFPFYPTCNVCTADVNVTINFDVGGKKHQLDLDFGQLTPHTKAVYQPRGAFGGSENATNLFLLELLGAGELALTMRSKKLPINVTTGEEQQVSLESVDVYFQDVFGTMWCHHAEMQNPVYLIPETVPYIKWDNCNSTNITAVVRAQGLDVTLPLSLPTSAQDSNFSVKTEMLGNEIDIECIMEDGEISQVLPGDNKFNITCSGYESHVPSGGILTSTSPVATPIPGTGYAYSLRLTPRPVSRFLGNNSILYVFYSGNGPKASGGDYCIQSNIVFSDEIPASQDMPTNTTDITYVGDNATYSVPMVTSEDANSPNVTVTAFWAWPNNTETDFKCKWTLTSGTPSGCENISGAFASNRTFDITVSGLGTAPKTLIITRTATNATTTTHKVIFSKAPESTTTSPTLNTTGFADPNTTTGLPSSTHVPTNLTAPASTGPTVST
The experiment in a line: NMR titration, upper limit from slow exchange (min. shift difference about 60 Hz, diffusion-limited on rate assumed).

The target of assay [4] is T2, EBV gp350, truncated construct …. The experiment in a line: ITC, 20 °C, 1/3x PBS, single site binding model.

Where only a bound is given, the exact number is not on record here.

T1 sequence (P01024 996-1303 limits assumed): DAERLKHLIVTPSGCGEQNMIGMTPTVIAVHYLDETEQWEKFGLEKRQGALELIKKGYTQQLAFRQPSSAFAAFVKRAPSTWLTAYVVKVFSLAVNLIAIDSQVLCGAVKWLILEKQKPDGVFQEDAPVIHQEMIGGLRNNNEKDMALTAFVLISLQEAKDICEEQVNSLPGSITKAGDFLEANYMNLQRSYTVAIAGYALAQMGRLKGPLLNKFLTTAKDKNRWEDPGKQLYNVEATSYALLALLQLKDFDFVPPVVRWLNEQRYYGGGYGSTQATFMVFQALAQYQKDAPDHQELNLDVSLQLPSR

B1: Human CR2 SCR1-2 (short consensus repeat domains 1 and 2 of human complement receptor 2) (receptor)
chain: ISCGSPPPILNGRISYYSTPIAVGTVIRYSCSGTFRLIGEKSLLCITKDKVDGTWDKPAPKCEYFNKYSSCPEPIVPGGYKIRGSTPYRHGDSVTFACKTNFSMNGNKSVWCQANNMWGPTRLPTCVS
notes: The ITC paragraph says only 'CR2 SCR1-2', so it is not clear which preparation gave the ITC values; also called CR2/CD21 SCR1-2; SCR1-2 domains of CR2
Take B1: the Kd is 160000 nM in assay [1], 130 nM in assay [2], no more than 60000 nM in assay [3] and 14 nM in assay [4].

By Kd is commonly meant the concentration at which binding is half-saturated.

The values above are taken from US20130190477A1 (REGENTS OF THE UNIVERSITY OF COLORADO, published 2013).
